Measured values taken from US6824783.

biological target: viral gp41 (HIV-1 transmembrane protein) of HIV-1IIIB (HIV-1 IIIB); assay: cell-based or functional assay

“M41 (maltose binding protein fused to the extracellular domain of HIV-1 gp41, residues 540-686) (from UniProt P03377 540-686)” and “M41-PΔ178 (M41-P from which the DP-178 region has been deleted; gp41 residues 540-642 with Ile578Pro) (from UniProt P03377 540-642)” cannot be ordered by Cell fusion (IC90): greater than 50 µM for the first, greater than 50 µM for the second.

Work on “M41-P (M41 with an Ile to Pro mutation at position 578) (from UniProt P03377 540-686)” yielded a Cell fusion (IC90) of 0.083 µM.

“M41 (maltose binding protein fused to the extracellular domain of HIV-1 gp41, residues 540-686) (from UniProt P03377 540-686)” and “M41-PΔ178 (M41-P from which the DP-178 region has been deleted; gp41 residues 540-642 with Ile578Pro) (from UniProt P03377 540-642)” cannot be ordered by HIV infectivity (IC90): greater than 16 µM for the first, greater than 8 µM for the second.

With “M41-P (M41 with an Ile to Pro mutation at position 578) (from UniProt P03377 540-686)” the HIV infectivity (IC90) was 0.066 µM.
